Experimental data reported in patent publication US20220332824A1 (NANJING GENSCRIPT BIOTECH, published 2022).
Changes are numbered by the printed parent chain.

B1: bispecific antibody PD1a-E-LN (bispecific antibody, human IgG4 S228P, kappa)
heavy: not shown
light: EVQLVESGGGLVQPGGSLRLSCAVSGNIYNRNFMGWFRQAPGKGREGVSAIYTGTSRTYYADSVKGRFTISRDNAKNTVYLQMNSLRPEDTAVYYCAADLRDGFWDTGVWNTWGQGTLVTVSSEPKSSDKTHTSPPSPEIVLTQSPATLSLSPGERATLSCRASENVGTYISWYQQKPGQAPRLLIYGASNRYTGIPARFSGSGSGTDFTLTISSLEPEDFAVYYCGESYGHLYTFGGGTKVEIKRTVAAPSVFIFPPSDEQLKSGTASVVCLLNNFYPREAKVQWKVDNALQSGNSQESVTEQDSKDSTYSLSSTLTLSKADYEKHKVYACEVTHQGLSSPVTKSFNRGEC
notes: PD1a sdAb fused by the E-linker to the N-terminus of light chain L0; also called L3 + H0
B2: bispecific antibody PD1b-E-LN (bispecific antibody, human IgG4 S228P, kappa)
heavy: not shown
light: B1 light with R45L, A75S, P88A, D102E
notes: PD1b sdAb fused by the E-linker to the N-terminus of light chain L0; also called L4 + H0
B3: bispecific antibody PD1a-E-LC (bispecific antibody, human IgG4 S228P, kappa)
heavy: not shown
light: EIVLTQSPATLSLSPGERATLSCRASENVGTYISWYQQKPGQAPRLLIYGASNRYTGIPARFSGSGSGTDFTLTISSLEPEDFAVYYCGESYGHLYTFGGGTKVEIKRTVAAPSVFIFPPSDEQLKSGTASVVCLLNNFYPREAKVQWKVDNALQSGNSQESVTEQDSKDSTYSLSSTLTLSKADYEKHKVYACEVTHQGLSSPVTKSFNRGECEPKSSDKTHTSPPSPEVQLVESGGGLVQPGGSLRLSCAVSGNIYNRNFMGWFRQAPGKGREGVSAIYTGTSRTYYADSVKGRFTISRDNAKNTVYLQMNSLRPEDTAVYYCAADLRDGFWDTGVWNTWGQGTLVTVSS
notes: PD1a sdAb fused by the E-linker to the C-terminus of light chain L0; also called L1 + H0
B4: bispecific antibody PD1b-E-LC (bispecific antibody, human IgG4 S228P, kappa)
heavy: not shown
light: B3 light with R274L, A304S, P317A, D331E
notes: PD1b sdAb fused by the E-linker to the C-terminus of light chain L0; also called L2 + H0
B5: bispecific antibody PD1a-E-HN (bispecific antibody, human IgG4 S228P, kappa)
heavy: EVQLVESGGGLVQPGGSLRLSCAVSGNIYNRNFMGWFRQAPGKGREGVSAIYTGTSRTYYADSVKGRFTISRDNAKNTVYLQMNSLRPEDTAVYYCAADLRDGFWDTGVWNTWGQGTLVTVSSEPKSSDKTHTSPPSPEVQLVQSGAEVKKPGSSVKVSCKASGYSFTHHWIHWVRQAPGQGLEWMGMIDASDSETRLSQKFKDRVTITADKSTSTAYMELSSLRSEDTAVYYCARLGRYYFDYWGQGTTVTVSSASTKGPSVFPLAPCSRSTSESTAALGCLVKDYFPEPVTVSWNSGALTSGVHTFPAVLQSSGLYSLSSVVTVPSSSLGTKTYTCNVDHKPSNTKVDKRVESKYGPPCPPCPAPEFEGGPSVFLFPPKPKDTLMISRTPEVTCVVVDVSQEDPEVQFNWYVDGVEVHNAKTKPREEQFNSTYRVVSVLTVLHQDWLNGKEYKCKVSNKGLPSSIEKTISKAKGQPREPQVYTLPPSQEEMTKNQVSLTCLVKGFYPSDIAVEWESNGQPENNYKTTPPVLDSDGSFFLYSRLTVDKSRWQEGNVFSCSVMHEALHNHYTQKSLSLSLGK
light: EIVLTQSPATLSLSPGERATLSCRASENVGTYISWYQQKPGQAPRLLIYGASNRYTGIPARFSGSGSGTDFTLTISSLEPEDFAVYYCGESYGHLYTFGGGTKVEIKRTVAAPSVFIFPPSDEQLKSGTASVVCLLNNFYPREAKVQWKVDNALQSGNSQESVTEQDSKDSTYSLSSTLTLSKADYEKHKVYACEVTHQGLSSPVTKSFNRGEC
notes: PD1a sdAb fused by the E-linker to the N-terminus of heavy chain H0; also called H3 + L0
B6: bispecific antibody PD1a-E-HC (bispecific antibody, human IgG4 S228P, kappa)
heavy: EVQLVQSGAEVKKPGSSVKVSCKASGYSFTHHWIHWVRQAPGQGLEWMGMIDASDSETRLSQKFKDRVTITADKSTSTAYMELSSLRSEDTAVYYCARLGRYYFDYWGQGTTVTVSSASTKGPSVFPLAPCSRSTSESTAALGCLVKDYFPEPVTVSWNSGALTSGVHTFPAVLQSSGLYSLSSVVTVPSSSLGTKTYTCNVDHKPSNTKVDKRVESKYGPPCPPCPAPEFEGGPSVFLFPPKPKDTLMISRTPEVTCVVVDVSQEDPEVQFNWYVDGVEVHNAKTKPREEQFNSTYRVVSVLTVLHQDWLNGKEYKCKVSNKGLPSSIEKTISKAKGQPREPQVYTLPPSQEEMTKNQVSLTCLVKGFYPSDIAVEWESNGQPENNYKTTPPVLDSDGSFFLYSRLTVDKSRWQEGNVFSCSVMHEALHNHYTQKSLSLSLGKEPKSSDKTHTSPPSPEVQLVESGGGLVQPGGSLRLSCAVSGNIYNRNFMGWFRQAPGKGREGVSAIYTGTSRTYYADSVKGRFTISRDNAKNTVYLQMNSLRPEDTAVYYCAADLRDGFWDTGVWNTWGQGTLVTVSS
light: B5 light
notes: PD1a sdAb fused by the E-linker to the C-terminus of heavy chain H0; also called H1 + L0
B7: bispecific antibody PD1a-G15-HC (bispecific antibody, human IgG4 S228P, kappa)
heavy: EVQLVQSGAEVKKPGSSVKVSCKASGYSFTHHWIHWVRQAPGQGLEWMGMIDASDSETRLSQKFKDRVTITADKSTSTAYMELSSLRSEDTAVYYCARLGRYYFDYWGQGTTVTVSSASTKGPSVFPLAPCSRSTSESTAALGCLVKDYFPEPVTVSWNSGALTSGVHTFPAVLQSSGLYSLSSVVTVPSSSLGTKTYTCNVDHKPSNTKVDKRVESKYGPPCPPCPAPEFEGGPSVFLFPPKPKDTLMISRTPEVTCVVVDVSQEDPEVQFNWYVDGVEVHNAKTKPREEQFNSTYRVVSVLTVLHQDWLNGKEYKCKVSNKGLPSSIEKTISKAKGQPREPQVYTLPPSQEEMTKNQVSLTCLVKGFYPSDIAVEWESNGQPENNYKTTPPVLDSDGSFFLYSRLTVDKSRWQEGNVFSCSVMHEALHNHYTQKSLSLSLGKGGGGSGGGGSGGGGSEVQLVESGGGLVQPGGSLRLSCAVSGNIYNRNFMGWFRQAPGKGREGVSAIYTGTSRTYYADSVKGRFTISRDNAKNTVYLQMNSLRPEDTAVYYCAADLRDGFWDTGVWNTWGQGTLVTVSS
light: B5 light
notes: PD1a sdAb fused by the G15-linker to the C-terminus of heavy chain H0; also called H5 + L0
B8: bispecific antibody PD1b-E-HC (bispecific antibody, human IgG4 S228P, kappa)
heavy: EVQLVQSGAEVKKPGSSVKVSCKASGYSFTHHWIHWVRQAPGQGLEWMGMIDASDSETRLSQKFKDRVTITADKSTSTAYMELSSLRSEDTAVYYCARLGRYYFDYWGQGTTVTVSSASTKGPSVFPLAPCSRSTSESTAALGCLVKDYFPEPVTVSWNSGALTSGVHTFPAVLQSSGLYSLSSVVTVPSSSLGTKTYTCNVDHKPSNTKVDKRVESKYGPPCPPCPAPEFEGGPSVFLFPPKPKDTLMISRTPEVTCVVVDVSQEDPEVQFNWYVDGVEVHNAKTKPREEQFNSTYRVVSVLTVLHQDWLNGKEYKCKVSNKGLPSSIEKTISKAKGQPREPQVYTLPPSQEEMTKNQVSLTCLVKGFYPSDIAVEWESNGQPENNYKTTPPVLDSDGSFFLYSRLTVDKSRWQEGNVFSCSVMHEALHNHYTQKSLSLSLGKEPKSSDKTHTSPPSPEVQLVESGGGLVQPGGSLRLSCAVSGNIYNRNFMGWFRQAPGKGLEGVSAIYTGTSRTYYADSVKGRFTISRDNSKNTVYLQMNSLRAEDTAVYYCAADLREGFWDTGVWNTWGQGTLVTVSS
light: B5 light
notes: PD1b sdAb fused by the E-linker to the C-terminus of heavy chain H0; also called H2 + L0
B9: bispecific antibody PD1b-E-HN (bispecific antibody, human IgG4 S228P, kappa)
heavy: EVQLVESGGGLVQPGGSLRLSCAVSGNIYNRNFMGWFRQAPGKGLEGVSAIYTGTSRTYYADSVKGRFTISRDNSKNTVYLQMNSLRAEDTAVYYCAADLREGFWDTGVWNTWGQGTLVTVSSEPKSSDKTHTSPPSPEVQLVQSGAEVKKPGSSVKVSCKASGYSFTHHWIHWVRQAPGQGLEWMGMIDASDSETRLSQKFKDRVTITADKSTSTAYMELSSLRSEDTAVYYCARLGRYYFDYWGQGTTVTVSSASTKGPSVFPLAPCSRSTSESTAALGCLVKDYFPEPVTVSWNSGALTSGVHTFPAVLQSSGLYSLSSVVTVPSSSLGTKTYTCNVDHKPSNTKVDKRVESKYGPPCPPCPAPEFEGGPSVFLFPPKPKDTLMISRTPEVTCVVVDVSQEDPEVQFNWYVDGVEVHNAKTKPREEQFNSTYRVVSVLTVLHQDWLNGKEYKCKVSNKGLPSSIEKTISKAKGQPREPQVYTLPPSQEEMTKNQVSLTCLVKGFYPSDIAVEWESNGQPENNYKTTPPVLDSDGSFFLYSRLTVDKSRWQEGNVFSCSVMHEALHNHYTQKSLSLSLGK
light: B5 light
notes: PD1b sdAb fused by the E-linker to the N-terminus of heavy chain H0; also called H4 + L0

Target: T1, human PD-1 (human, UniProt Q15116 25-288)
T1 construct: whole, on cells; also called PD-1 antigen
T1 sequence (Q15116 25-288): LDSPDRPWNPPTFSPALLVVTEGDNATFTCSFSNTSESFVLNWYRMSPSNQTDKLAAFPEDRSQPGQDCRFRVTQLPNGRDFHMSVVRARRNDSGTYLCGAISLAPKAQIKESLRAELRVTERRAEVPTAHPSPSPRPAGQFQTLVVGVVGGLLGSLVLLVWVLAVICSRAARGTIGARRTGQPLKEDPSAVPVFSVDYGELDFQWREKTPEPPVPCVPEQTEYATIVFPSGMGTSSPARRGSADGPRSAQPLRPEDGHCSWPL
Assay: flow cytometry on CHO-K1 cells expressing PD-1
Protocol: For the constructed series of bispecific antibodies, the affinity of these samples with antigens was measured by using a flow cytometer. […] Then, an antibody-antigen binding curve was generated based on the geometric mean, raw data of four parameters was plotted by using the […] Prism V6.02 software, and a best fitted value program was compiled to analyze EC₅₀.

Binding result, binds:
B1
B2
B3
B4
B5
B6
B7
B8
B9
